From PMC10873877 come the findings set out here.

The target of the series is His-AvrXa27 (Xanthomonas oryzae pv. oryzae, UniProt Q4QS99 1-1136). Put plainly: EMSA; […]; buffer, […], pH and temperature not stated. The settings on record: protein: recombinant; tags: His (pET-30a); label: Cy5; blunt.

B1: Xa13p-14 (dsDNA)
DNA 1: ATCTCCCCCTACTCTACAT
DNA 2: ATGTAGAGTAGGGGGAGAT
For the molecule B1, the binding result was “no binding”.
